{
  "source": "paper PMC11068555",
  "assay_in_all_cases": "native gel or EMSA",
  "key": {"[1]": {"target": "Rf1 S Foldon his (prefusion stabilized spike ectodomain) (sarbecovirus Rf1 (clade 2) | bacteriophage T4)"}, "[2]": {"target": "Pang17 S Foldon his (prefusion stabilized spike ectodomain) (sarbecovirus Pang17 (clade 1b) | bacteriophage T4)"}, "[3]": {"target": "SARS-CoV S Foldon his (prefusion stabilized spike ectodomain) (SARS-CoV (clade 1a) | bacteriophage T4)"}, "[4]": {"target": "Btky72 S Foldon his (sarbecovirus BtKY72 (clade 3) | bacteriophage T4)"}, "[5]": {"target": "PRD-0038 S Foldon his (prefusion stabilized spike ectodomain) (sarbecovirus PRD-0038 (clade 3) | bacteriophage T4)"}, "[6]": {"target": "Rs4081 S Foldon his (prefusion stabilized spike ectodomain) (sarbecovirus Rs4081 (clade 2) | bacteriophage T4)"}, "[7]": {"target": "RshSTT200 S Foldon his (prefusion stabilized spike ectodomain) (sarbecovirus RshSTT200 (clade 1b) | bacteriophage T4)"}, "[8]": {"target": "Khosta-2 S Foldon his (prefusion stabilized spike ectodomain) (sarbecovirus Khosta-2 (clade 3) | bacteriophage T4)"}},
  "data": [
    {"substance": "Rf1 S Foldon his (prefusion stabilized spike ectodomain) (domain or fragment)", "values": [
      {"measurement": "stoichiometry N", "setting": "[1]", "value": 3}
    ]},
    {"substance": "Pang17 S Foldon his (prefusion stabilized spike ectodomain) (domain or fragment)", "values": [
      {"measurement": "stoichiometry N", "setting": "[2]", "value": 3}
    ]},
    {"substance": "SARS-CoV S Foldon his (prefusion stabilized spike ectodomain) (domain or fragment)", "values": [
      {"measurement": "stoichiometry N", "setting": "[3]", "value": 3}
    ]},
    {"substance": "Btky72 S Foldon his (domain or fragment)", "values": [
      {"measurement": "stoichiometry N", "setting": "[4]", "value": 3}
    ]},
    {"substance": "PRD-0038 S Foldon his (prefusion stabilized spike ectodomain) (domain or fragment)", "values": [
      {"measurement": "stoichiometry N", "setting": "[5]", "value": 3}
    ]},
    {"substance": "Rs4081 S Foldon his (prefusion stabilized spike ectodomain) (domain or fragment)", "values": [
      {"measurement": "stoichiometry N", "setting": "[6]", "value": 3}
    ]},
    {"substance": "RshSTT200 S Foldon his (prefusion stabilized spike ectodomain) (domain or fragment)", "values": [
      {"measurement": "stoichiometry N", "setting": "[7]", "value": 3}
    ]},
    {"substance": "Khosta-2 S Foldon his (prefusion stabilized spike ectodomain) (domain or fragment)", "values": [
      {"measurement": "stoichiometry N", "setting": "[8]", "value": 3}
    ]}
  ]
}
